Assay results published in the supplement of paper PMC7877785.
± gives the uncertainty stated by the source.

Assay: self-splicing fitness, log relative to wild type (ln ratio); higher = more splicing; Tetrahymena group I intron in knt gene, E. coli kanamycin selection, DiMSum; sequences stand for … in CUCUCU…GGAGGGAAAAGUUAUCAGGCAUGCACCUGGUAGCUAGUCUUUAAACCAAUAGAUUGCAUCGGUUUAAAAGGCAAGACCGUCAAAUUGCGGGAAAGGGGUCAACAGCCGUUCAGUACCAAGUCUCAGGGGAAACUUUGAGAUGGCCUUGCAAAGGGUAUGGUAAUAAGCUGACGGACAUGGUCCUAACCACGCAGCCAAGUCCUAAGUCAACAGAUCUUCUGUUGAUAUGGAUGCAGUUCACAGACUAAAUGUCGGUCGGGGAAGAUGUAUUCUUCUCAUAAGAUAUAGUCGGACCUCUCCUUAAUGGGAGCUAGCGGAUGAAGUGAUGCAACACUGGAGCCGCUGGGAACUAAUUUGUAUGCGAAAGUAUAUUGAUUAGUUUUGGAGUACUCGUGGUCG
In short: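 DiMSum derived fitness as the error-weighted combination of fold changes across replicates, kanamycin versus no kanamycin, normalised to wild type. E. coli BL21(DE3) held the library, which randomised all eight P1ex-region intron nucleotides within the knt kanamycin-resistance gene on pET-22b(+). Six replicate transformations grew overnight at 37°C or 30°C on LB agar with or without 25 μg/mL kanamycin, also containing 100 μg/mL carbenicillin, 50 μM IPTG and 0.2% rhamnose, and pooled colonies were amplicon-sequenced on an Illumina HiSeq 2500.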

Sequence | self-splicing fitness (ln) (30 °C) | self-splicing fitness (ln) (37 °C)
UCGAAGCAAUAUUACGUAGA | -1.81 ± 0.14 | -0.562 ± 0.15
UCUAAGCAAUAUUACGCUAG | -2.73 ± 0.16 | -2.89 ± 0.26
AUCGAGCAAUAUUACGCUAG | -4.43 ± 0.46 | -2.64 ± 0.33
UUUUAGCAAUAUUACGCUUU | -3.71 ± 0.28 | -1.23 ± 0.16
GUUCAGCAAUAUUACGGCAA | -0.436 ± 0.078 | -0.458 ± 0.1
UCAUAGCAAUAUUACGCCUC | -2.43 ± 0.31 | -1.04 ± 0.2
GAGCAGCAAUAUUACGGUAC | -2.73 ± 0.14 | -0.416 ± 0.11
CACAAGCAAUAUUACGUCCG | -0.428 ± 0.094 | 0.252 ± 0.12
GAGGAGCAAUAUUACGGGAU | -2.69 ± 0.28 | –
GUCCAGCAAUAUUACGGGAG | -1.15 ± 0.063 | -0.322 ± 0.082
CAUUAGCAAUAUUACGGAUA | -2.16 ± 0.12 | -1.42 ± 0.13
GGCGAGCAAUAUUACGCUAA | -2.83 ± 0.32 | -1.02 ± 0.22
AGGUAGCAAUAUUACGACAC | -0.582 ± 0.018 | -0.427 ± 0.036
CAUUAGCAAUAUUACGGGCU | -1.68 ± 0.2 | -2.7 ± 0.3
AGUAAGCAAUAUUACGGCUA | 0.0253 ± 0.081 | 0.0684 ± 0.094
UGAUAGCAAUAUUACGCUGC | -3.67 ± 0.31 | -2.61 ± 0.48
CUGGAGCAAUAUUACGGGCA | -1.06 ± 0.38 | –
CGUAAGCAAUAUUACGAAGC | -2.95 ± 0.23 | -2.73 ± 0.26
CGAAAGCAAUAUUACGAGCU | -2.9 ± 0.12 | -1.59 ± 0.13
CUUAAGCAAUAUUACGCUGG | -4.54 ± 0.32 | -2.64 ± 0.18
AGGCAGCAAUAUUACGUAGC | -2.64 ± 0.23 | -1.29 ± 0.17
CCUAAGCAAUAUUACGCAGA | – | -2.34 ± 0.37
CUCCAGCAAUAUUACGACUG | -3.12 ± 0.14 | -2.83 ± 0.16
CUACAGCAAUAUUACGCUGA | -3.41 ± 0.28 | –
CGCGAGCAAUAUUACGGCAA | -4.21 ± 0.46 | -1.97 ± 0.28

Sequence | self-splicing fitness (ln) (30 °C) | self-splicing fitness (ln) (37 °C)
AUGCAGCAAUAUUACGGUUG | -4.33 ± 0.23 | -2.21 ± 0.19
GCAUAGCAAUAUUACGUGCG | -2.26 ± 0.1 | -1.91 ± 0.14
CAGGAGCAAUAUUACGAUCA | -1.84 ± 0.16 | -2.74 ± 0.28
UUGGAGCAAUAUUACGGUUC | -2.38 ± 0.2 | -2.86 ± 0.3
AGUCAGCAAUAUUACGGAUU | -2.25 ± 0.14 | -1.42 ± 0.11
CAAAAGCAAUAUUACGGGAG | -2.05 ± 0.074 | -0.972 ± 0.079
GCGUAGCAAUAUUACGACGA | -0.712 ± 0.15 | -0.0139 ± 0.19
UUGGAGCAAUAUUACGGCUA | -1.23 ± 0.26 | -1.21 ± 0.41
AGUCAGCAAUAUUACGCUGA | -2.55 ± 0.19 | -2.24 ± 0.22
CCGUAGCAAUAUUACGAAGG | -3.22 ± 0.39 | –
GGACAGCAAUAUUACGGCCA | -0.721 ± 0.077 | -0.225 ± 0.1
GCGGAGCAAUAUUACGCGUG | -2.56 ± 0.29 | -1.85 ± 0.29
CCACAGCAAUAUUACGAGUU | -2.76 ± 0.09 | -2.76 ± 0.12
CGCAAGCAAUAUUACGGGUC | -3.87 ± 0.23 | -3.77 ± 0.28
GACAAGCAAUAUUACGUGAA | -1.81 ± 0.076 | -1.11 ± 0.089
CAAUAGCAAUAUUACGGGAU | -3.36 ± 0.31 | -2.57 ± 0.35
AUGUAGCAAUAUUACGACAG | 0.106 ± 0.081 | 0.358 ± 0.095
CGCUAGCAAUAUUACGAGUC | -1.8 ± 0.13 | -1.01 ± 0.15
UCGUAGCAAUAUUACGGACG | -2.58 ± 0.24 | -1.68 ± 0.21
AAUUAGCAAUAUUACGUGAU | -1.87 ± 0.13 | -1.56 ± 0.16
UCACAGCAAUAUUACGGAUG | -2.4 ± 0.12 | -1.89 ± 0.13
UUUGAGCAAUAUUACGUGCU | -3.64 ± 0.16 | -2.84 ± 0.2
GGUCAGCAAUAUUACGGACC | -3.67 ± 0.18 | -2.08 ± 0.22
GGCAAGCAAUAUUACGGCCG | -1.09 ± 0.11 | 0.00962 ± 0.13
